Data from patent publication US7232671.
Positions count from the first letter of the chain named.

B1: full-length recombinant S1 with the Arg->Lys mutation at residue 9 (protein)
chain: DDPPATVYKYDSRPPEDVFQNGFTAWGNNDNVLDHLTGRSCQVGSSNSAFVSTSSSRRYTEVYLEHRMQEAVEAERAGRGTGHFIGYIYEVRADNNFYGAASSYFEYVDTYGDNAGRILAGALATYQSEYLAHRRIPPENIRRVTRVYHNGITGETTTTEYSNARYVSQHTRANPNPYTSRRSVASIVGTLVRMAPVIGACMARQAESSEAMAAWSERAGEAMVLVYYESIAYS
B2: S1/6A (recombinant pertussis toxin S1 analog, parent construction 6A) (protein)
chain: B1 chain with D1M, D2V, K9R
B3: S1 mutant 5-1 (Tyr8->Phe in S1/6A) (protein)
chain: B1 chain with D1M, D2V, Y8F, K9R
B4: S1 mutant 4-1 (Arg9->Lys in S1/6A) (protein)
chain: B1 chain with D1M, D2V
B5: S1 mutant 3-1 (Asp11->Glu in S1/6A) (protein)
chain: B1 chain with D1M, D2V, K9R, D11E
B6: S1 mutant 2-2 (Ser12->Gly in S1/6A) (protein)
chain: B1 chain with D1M, D2V, K9R, S12G
B7: S1 mutant 1-1 (Arg13->Lys in S1/6A) (protein)
chain: B1 chain with D1M, D2V, K9R, R13K
B8: S1 mutant 8-1 (Tyr8->Leu, Arg9->Glu in S1/6A) (protein)
chain: B1 chain with D1M, D2V, Y8L, K9E
B9: S1 mutant 7-2 (Arg9->Asn, Ser12->Gly in S1/6A) (protein)
chain: B1 chain with D1M, D2V, K9N, S12G
B10: S1 mutant 6-1 (Asp11->Pro, Pro14->Asp in S1/6A) (protein)
chain: B1 chain with D1M, D2V, K9R, D11P, P14D

Target: purified bovine transducin (alpha subunit is the ADP-ribose acceptor), P04695

Protein | transferase activity | ADP-ribosyltransferase activity (cpm)
B1 | transferase activity was reduced by a factor of approximately 1000 | 
B2 |  | 23400 ± 950
B3 |  | 26400 ± 1320
B4 |  | 754
B5 |  | 13500 ± 1600
B6 |  | 22300 ± 2100
B7 |  | 7390 ± 1370
B8 |  | 926
B9 |  | 753
B10 |  | 764
